Laboratory results from patent US20130052130A1.

What was measured:
BSM = test: competition ELISA, BSM-coated plate; competitor is mCC49 at 0.033 ug/mL
TAG-72 = test: competition assay, single aliquots; antigen and competitor not stated

| Substance | I1/2 fold relative to F(ab′)2 (fold (× the I1/2 of F(ab′)2)) (BSM) | Relative Affinity Constant (Ka) (relative to Fab′-NEM defined as 1.0) (TAG-72) |
| --- | --- | --- |
| CC49 Fab′-NEM | 40 | 1 |
| CC49 Fab′-dPEG12-Tris(dPEG12 acid)3 |  | 0.3 |
| CC49 Fab′-dPEG12-Tris(dPEG12-Tris(m-dPEG11)3)3 |  | 0.4 |
| CC49 Fab′-dPEG12-Tris(dPEG24 acid)3 | 40 | 1 |
| CC49 Fab′-dPEG12-Tris(m-dPEG24)3 |  | 0.3 |
